Measured values published in the Immune Epitope Database (IEDB).

Assays:
HLA-A*11:01 = experiment: IEDB peptide-MHC binding, purified MHC/competitive/radioactivity; filed as Kd, often an IC50 or EC50 that approximates it; ≥ and ≤ were set here for values at or beyond the usual limits of such assays; settings: source organism: Vaccinia virus WR
HLA-B*07:02 = experiment: as above; settings: source organism: Vaccinia virus WR

## AFEFINSLLK
HLA-A*11:01
  Kd: 0.47 µM

## LPRPDTRHL
HLA-B*07:02
  Kd: 0.014 µM

## RPSTRNFFEL
HLA-B*07:02
  Kd: 0.011 µM
